Assays:
human CD3 = target: T1, human CD3 (human, UniProt P07766 23-207); experiment: flow cytometry on human CD3 positive T cells
T1 construct: whole, on cells; Assays used CD3 positive T cells (or CIK cells) from human blood; also called Human CD3ϵ; CD3 on human CD3 positive T cells

monkey CD3 = target: T2, monkey CD3 (monkey); experiment: flow cytometry on monkey CD3 positive T cells
T2 construct: whole, on cells; also called CD3 on monkey CD3 positive T cells

| Binder | EC50 (human CD3) [nM] | EC50 (monkey CD3) [nM] |
| --- | --- | --- |
| IC-6 (bispecific antibody, human IgG1, kappa, Comparative: 4420 Fab arm and anti-CD3 scFv (CD3 antibody 1 VH, CD3 antibody 2 VL)-Fc fusion peptide) scFv: EVQLVESGGGLVQPGGSLRLSCAASGFTFSTYAMNWVRQAPGKGLEWVARIRSKYNNYATYYADSVKDRFTISRDDSKNTLYLQMNSLRAEDTAVYYCARHGNFGNSYVSWFAYWGQGTMVTVSSGGGGSGGGGSGGGGSQAVVTQEPSLTVSPGGTVTLTCGSSTGAVTTSNYANWVQQKPGQAPRGLIGGTNKRAPGVPARFSGSLLGGKAALTLSGAQPEDEAEYYCALWYSNLWVFGGGTKLEIKGGGGSDKTHTCPPCPAPEFEGGPSVFLFPPKPKDTLMISRTPEVTCVVVDVSHEDPEVKFNWYVDGVEVHNAKTKPREEQYNSTYRVVSVLTVLHQDWLNGKEYKCKVSNKALPASIEKTISKAKGQPREPQVCTLPPSRDELTKNQVSLSCAVKGFYPSDIAVEWESNGQPENNYKTTPPVLDSDGSFFLVSKLTVDKSRWQQGNVFSCSVMHEALHNHYTQKSLSLSPGK heavy: EVKLDETGGGLVQPGRPMKLSCVASGFTFSDYWMNWVRQSPEKGLEWVAQIRNKPYNYETYYSDSVKGRFTISRDDSKSSVYLQMNNLRVEDMGIYYCTGSYYGMDYWGQGTSVTVSSASTKGPSVFPLAPSSKSTSGGTAALGCLVKDYFPEPVTVSWNSGALTSGVHTFPAVLQSSGLYSLSSVVTVPSSSLGTQTYICNVNHKPSNTKVDKKVEPKSCDKTHTCPPCPAPEFEGGPSVFLFPPKPKDTLMISRTPEVTCVVVDVSHEDPEVKFNWYVDGVEVHNAKTKPREEQYNSTYRVVSVLTVLHQDWLNGKEYKCKVSNKALPASIEKTISKAKGQPREPQVYTLPPCRDELTKNQVSLWCLVKGFYPSDIAVEWESNGQPENNYKTTPPVLDSDGSFFLYSKLTVDKSRWQQGNVFSCSVMHEALHNHYTQKSLSLSPGK light: DVVMTQTPLSLPVSLGDQASISCRSSQSLVHSNGNTYLRWYLQKPGQSPKVLIYKVSNRFSGVPDRFSGSGSGTDFTLKISRVEAEDLGVYFCSQSTHVPWTFGGGTKLEIKRTVAAPSVFIFPPSDEQLKSGTASVVCLLNNFYPREAKVQWKVDNALQSGNSQESVTEQDSKDSTYSLSSTLTLSKADYEKHKVYACEVTHQGLSSPVTKSFNRGEC | 118 | 154 |
| IC-4 (bispecific antibody, human IgG1, kappa, Comparative: 4420 Fab arm and anti-CD3 scFv (CD3 antibody 1 VH/VL)-Fc fusion peptide) scFv: EVQLVESGGGLVQPGGSLRLSCAASGFTFSTYAMNWVRQAPGKGLEWVARIRSKYNNYATYYADSVKDRFTISRDDSKNTLYLQMNSLRAEDTAVYYCARHGNFGNSYVSWFAYWGQGTMVTVSSGGGGSGGGGSGGGGSQAVVTQEPSLTVSPGGTVTLTCRSSTGAVTTSNYANWVQQKPGQAPRGLIGGTNKRAPGTPARFSGSLLGGKAALTLSGVQPEDEAEYYCALWYSNLWVFGGGTKLTVLGGGGSDKTHTCPPCPAPEFEGGPSVFLFPPKPKDTLMISRTPEVTCVVVDVSHEDPEVKFNWYVDGVEVHNAKTKPREEQYNSTYRVVSVLTVLHQDWLNGKEYKCKVSNKALPASIEKTISKAKGQPREPQVCTLPPSRDELTKNQVSLSCAVKGFYPSDIAVEWESNGQPENNYKTTPPVLDSDGSFFLVSKLTVDKSRWQQGNVFSCSVMHEALHNHYTQKSLSLSPGK heavy: EVKLDETGGGLVQPGRPMKLSCVASGFTFSDYWMNWVRQSPEKGLEWVAQIRNKPYNYETYYSDSVKGRFTISRDDSKSSVYLQMNNLRVEDMGIYYCTGSYYGMDYWGQGTSVTVSSASTKGPSVFPLAPSSKSTSGGTAALGCLVKDYFPEPVTVSWNSGALTSGVHTFPAVLQSSGLYSLSSVVTVPSSSLGTQTYICNVNHKPSNTKVDKKVEPKSCDKTHTCPPCPAPEFEGGPSVFLFPPKPKDTLMISRTPEVTCVVVDVSHEDPEVKFNWYVDGVEVHNAKTKPREEQYNSTYRVVSVLTVLHQDWLNGKEYKCKVSNKALPASIEKTISKAKGQPREPQVYTLPPCRDELTKNQVSLWCLVKGFYPSDIAVEWESNGQPENNYKTTPPVLDSDGSFFLYSKLTVDKSRWQQGNVFSCSVMHEALHNHYTQKSLSLSPGK light: DVVMTQTPLSLPVSLGDQASISCRSSQSLVHSNGNTYLRWYLQKPGQSPKVLIYKVSNRFSGVPDRFSGSGSGTDFTLKISRVEAEDLGVYFCSQSTHVPWTFGGGTKLEIKRTVAAPSVFIFPPSDEQLKSGTASVVCLLNNFYPREAKVQWKVDNALQSGNSQESVTEQDSKDSTYSLSSTLTLSKADYEKHKVYACEVTHQGLSSPVTKSFNRGEC | 197 | 296 |
| Y150-F8-1 (bispecific antibody, human IgG1, kappa, Comparative: anti-CD38 (Dara) Fab arm and anti-CD3 scFv (SP34)-Fc fusion peptide, CH2 FES) scFv: EVQLVESGGGLVQPKGSLKLSCAASGFTFNTYAMNWVRQAPGKGLEWVARIRSKYNNYATYYADSVKDRFTISRDDSQSILYLQMNNLKTEDTAMYYCVRHGNFGNSYVSWFAYWGQGTLVTVSSGGGGSGGGGSGGGGSQAVVTQESALTTSPGETVTLTCRSSTGAVTTSNYANWVQEKPDHLFTGLIGGTNKRAPGVPARFSGSLIGDKAALTITGAQTEDEAIYFCALWYSNLWVFGGGTKLTVLGDGDGSDKTHTCPPCPAPEFEGGPSVFLFPPKPKDTLMISRTPEVTCVVVDVSHEDPEVKFNWYVDGVEVHNAKTKPREEQYNSTYRVVSVLTVLHQDWLNGKEYKCKVSNKALPASIEKTISKAKGQPREPQVCTLPPSRDELTKNQVSLSCAVKGFYPSDIAVEWESNGQPENNYKTTPPVLDSDGSFFLVSKLTVDKSRWQQGNVFSCSVMHEALHNHYTQKSLSLSPGK heavy: EVQLLESGGGLVQPGGSLRLSCAVSGFTFNSFAMSWVRQAPGKGLEWVSAISGSGGGTYYADSVKGRFTISRDNSKNTLYLQMNSLRAEDTAVYFCAKDKILWFGEPVFDYWGQGTLVTVSSASTKGPSVFPLAPSSKSTSGGTAALGCLVKDYFPEPVTVSWNSGALTSGVHTFPAVLQSSGLYSLSSVVTVPSSSLGTQTYICNVNHKPSNTKVDKKVEPKSCDKTHTCPPCPAPEFEGGPSVFLFPPKPKDTLMISRTPEVTCVVVDVSHEDPEVKFNWYVDGVEVHNAKTKPREEQYNSTYRVVSVLTVLHQDWLNGKEYKCKVSNKALPASIEKTISKAKGQPREPQVYTLPPCRDELTKNQVSLWCLVKGFYPSDIAVEWESNGQPENNYKTTPPVLDSDGSFFLYSKLTVDKSRWQQGNVFSCSVMHEALHNHYTQKSLSLSPGK light: not shown | – | 152 |
| Y150-F8-2 (bispecific antibody, human IgG1, kappa, N297Q, Comparative: anti-CD38 (Dara) Fab arm and anti-CD3 scFv (SP34)-Fc fusion peptide, CH2 N297Q) scFv: not shown heavy: EVQLLESGGGLVQPGGSLRLSCAVSGFTFNSFAMSWVRQAPGKGLEWVSAISGSGGGTYYADSVKGRFTISRDNSKNTLYLQMNSLRAEDTAVYFCAKDKILWFGEPVFDYWGQGTLVTVSSASTKGPSVFPLAPSSKSTSGGTAALGCLVKDYFPEPVTVSWNSGALTSGVHTFPAVLQSSGLYSLSSVVTVPSSSLGTQTYICNVNHKPSNTKVDKKVEPKSCDKTHTCPPCPAPELLGGPSVFLFPPKPKDTLMISRTPEVTCVVVDVSHEDPEVKFNWYVDGVEVHNAKTKPREEQYQSTYRVVSVLTVLHQDWLNGKEYKCKVSNKALPAPIEKTISKAKGQPREPQVYTLPPCRDELTKNQVSLWCLVKGFYPSDIAVEWESNGQPENNYKTTPPVLDSDGSFFLYSKLTVDKSRWQQGNVFSCSVMHEALHNHYTQKSLSLSPGK light: not shown | – | 102 |
